Laboratory results taken from patent publication US20250382362A1 (UNIVERSIT TSKLINIKUM REGENSBURG, published 2025).
Substitutions are numbered along the chain they refer to. Where two headings read alike, the source gives them in different places.

Legend:
[1] = target: T1, human IL3 (human, UniProt P08700 20-152); test: cell-based or functional assay
T1 sequence: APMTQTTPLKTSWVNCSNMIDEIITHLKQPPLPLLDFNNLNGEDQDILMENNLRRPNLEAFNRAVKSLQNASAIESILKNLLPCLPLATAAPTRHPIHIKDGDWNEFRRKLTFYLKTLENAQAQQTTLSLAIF

[2] = target: T2, IL3 peptide, amino acids 26-48 (mature) / 45-67 (native) (human); test: ELISA on coated linear IL3 peptide
T2 construct: Peptide in which amino acids 22-25 are deleted
T2 peptide: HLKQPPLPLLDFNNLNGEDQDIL
Description: (§1) Peptides were coated overnight in PBS in Nunclon 96 Flat Bottom Transparent Polystyrol plates (Thermo Fisher) at a concentration of 10 μg/ml (60 μl/well). Then […] were washed three times with wash buffer (0.05% Tween 20 in PBS), followed by blocking for 2 hours at room temperature with 1% BSA/PBS. After another washing step with wash buffer, antibody GRT002-H16L2 was added (60 μl of a 10 μg/ml solution in 1% BSA/PBS) and incubated for 1 hour at room temperature. 1% BSA/PBS served as a control. After another washing step, GRT002-H16L2 was incubated with a secondary antibody (HRP-conjugated AffinePure fragment goat anti-human IgG; Jackson Immuno Research) for 1 hour at room temperature. After a final washing step, 100 μl of ABTS (2,2′-azino-bis(3-ethylbenzothiazoline-6-sulfonic acid) was added to each well. Absorption was measured in a infinite 200Pro reader (Tecan) at 405 nm.

[3] = target: T3, IL3 peptide, amino acids 22-48 (mature) / 41-67 (native) (human); test: ELISA on coated linear IL3 peptide
T3 construct: Linear peptide derived from human IL3, coated on the plate
T3 peptide: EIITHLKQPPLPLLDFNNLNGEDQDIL
Description: as §1

[4] = target: T4, IL3 peptide, amino acids 28-48 (mature) / 47-67 (native) (human); test: ELISA on coated linear IL3 peptide
T4 construct: Peptide in which amino acids 22-27 are deleted
T4 peptide: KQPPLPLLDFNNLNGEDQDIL
Description: as §1

[5] = target: T1, human IL3; test: cell-based or functional assay; remark: listed apart in the source
[6] = target: T1, human IL3; test: cell-based or functional assay; remark: listed apart in the source
[7] = target: T1, human IL3; test: cell-based or functional assay; remark: listed apart in the source
[8] = target: T1, human IL3; test: cell-based or functional assay; remark: listed apart in the source
[9] = target: T1, human IL3; test: cell-based or functional assay; remark: listed apart in the source

B1: GRT002-H16L2 (antibody, human IgG1, kappa, V domains shown)
VH: QVQLVQSGAEVKKPGASVKVSCKGSGFTFTDYALHWVRQAPGQRLEWMGLISTYYGDTTYNQRFKGRVTMTVDKSTSTAYMELSSLRSEDTAVYYCVITTVAGTDAMDYWGQGTLVTVSS
VL: DIQMTQSPSSLSASVGDRVTITCHASQNINVWLSWYQQKPGKAPKLLIYKASNLHTGVPSRFSGSGSGTDFTFTISSLQPEDIATYYCQQGYSYPYTFGGGTKLEIKR
notes: IgG1 of the G1m3 (heavy chain) and KM3 (light chain) allotype, lacks the C-terminal lysine; also called HC16 × LC2; humanized derivative of antibody P8C11
Inhibitory activity (block of IL-3 induced downregulation of CD131 on primary human basophils; chimeric P8C11 normalized to 100%) [1]: 100%
binding result [2]: binds
binding result [3]: binds
binding result [4]: binds

B2: Chimeric P8C11 (antibody, V domains shown)
VH: QVQLQQSGAEMVRPGVSVKIACKGSGFTFTDYALHWVKQSHAKSLEWIGLISTYYGDTTYNQRFKGKATMTVDKSSSTAYMELARLTSEDSAIYYCVITTVAGTDAMDYWGQGTSVTVSS
VL: DIQMNQSPSSLSASLGDTITITCHASQNINVWLSWYQQKPGNIPKLLIYKASNLHTGVPSRFSGSGSGTGFTLTISSLQPEDIATYYCQQGYSYPYTFGGGTKLEIK
Inhibitory activity (block of IL-3 induced downregulation of CD131 on primary human basophils; chimeric P8C11 normalized to 100%) [5]: 100%
Inhibitory activity (block of IL-3 induced downregulation of CD131 on primary human basophils; chimeric P8C11 normalized to 100%) [6]: 100%
Inhibitory activity (block of IL-3 induced downregulation of CD131 on primary human basophils; chimeric P8C11 normalized to 100%) [7]: 100%
Inhibitory activity (block of IL-3 induced downregulation of CD131 on primary human basophils; chimeric P8C11 normalized to 100%) [1]: 100%
Inhibitory activity (block of IL-3 induced downregulation of CD131 on primary human basophils; chimeric P8C11 normalized to 100%) [8]: 100%
Inhibitory activity (block of IL-3 induced downregulation of CD131 on primary human basophils; chimeric P8C11 normalized to 100%) [9]: 100%

B3: HC3.HMM × muLC (antibody, V domains shown)
VH: B2 VH with Q5V, V12K, R13K, V16A, I20V
VL: B2 VL
Inhibitory activity (block of IL-3 induced downregulation of CD131 on primary human basophils; chimeric P8C11 normalized to 100%) [9]: 100%

B4: HC3 × MuLC (antibody, V domains shown)
VH: B1 VH with V11M, S21A, M70I, V72R, K74T, T76A, V93I
VL: B2 VL
Inhibitory activity (block of IL-3 induced downregulation of CD131 on primary human basophils; chimeric P8C11 normalized to 100%) [6]: 6%

B5: HC5 × LC2 (antibody, V domains shown)
VH: QVQLVQSGAEMKKPGASVKVACKGSGFTFTDYALHWVRQAPGQRLEWMGLISTYYGDTTYNQRFKGRVTITRDTSASTAYMELARLTSEDSAIYYCVITTVAGTDAMDYWGQGTSVTVSS
VL: B2 VL with N5T, L15V, T18R, I19V, N42K, I43A, G70D, L73F
Inhibitory activity (block of IL-3 induced downregulation of CD131 on primary human basophils; chimeric P8C11 normalized to 100%) [8]: 9%

B6: HC4 × LC2 (antibody, V domains shown)
VH: B1 VH with V11M, S21A, R67K, V68A, T76S, V93I
VL: B2 VL with N5T, L15V, T18R, I19V, N42K, I43A, G70D, L73F
Inhibitory activity (block of IL-3 induced downregulation of CD131 on primary human basophils; chimeric P8C11 normalized to 100%) [8]: 100%

B7: MuHC × LC2 (antibody, V domains shown)
VH: B2 VH
VL: B2 VL with N5T, L15V, T18R, I19V, N42K, I43A, G70D, L73F
Inhibitory activity (block of IL-3 induced downregulation of CD131 on primary human basophils; chimeric P8C11 normalized to 100%) [6]: 100%

B8: HC3.MHM × muLC (antibody, V domains shown)
VH: B2 VH with K38R, S40A, H41P, A42G, K43Q, S44R, I48M
VL: B2 VL
Inhibitory activity (block of IL-3 induced downregulation of CD131 on primary human basophils; chimeric P8C11 normalized to 100%) [9]: 100%

B9: HC6 × LC2 (antibody, V domains shown)
VH: B1 VH with V11M, S21A, T76S, V93I
VL: B2 VL with N5T, L15V, T18R, I19V, N42K, I43A, G70D, L73F
Inhibitory activity (block of IL-3 induced downregulation of CD131 on primary human basophils; chimeric P8C11 normalized to 100%) [8]: 100%
